The results in this text go back to the supplement of paper PMC12042874.

± gives the uncertainty stated by the source.

This data set is described as follows: amyloid nucleation score (Sup35N fusion, yeast selection) (log enrichment); library NNK1; higher = more nucleation; inactive = no reads after selection. Summed up: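 In psi-negative yeast, Sup35N fusions carrying peptides of 20 random codons were induced with 100 μM copper sulfate for 24 hours. The cells then grew 7 days at 30°C on medium lacking adenine and uracil, and plasmid inserts from input and output were Illumina-sequenced, excluding sequences with under 100 input reads. Nucleation score is the DiMSum log enrichment of output over input reads, centred on the mode score of non-aggregating sequences.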
YNLYS yielded an amyloid nucleation score of -0.626 ± 1.1.

Consider RMLIYVQFTRRDKVSNPLM, for which the amyloid nucleation score was -0.685 ± 0.33.

Substance GYNFKRVSNFSVYGLVSYSN had an amyloid nucleation score of 0.046 ± 1.6.

For the substance SHTHEHKFSSSRCGELNSEK, the amyloid nucleation score was -0.902 ± 0.38.

For the substance SVKGLYLIDVLLSYGLTFGM, the amyloid nucleation score was -0.608 ± 0.53.

YFRYWNSLIGIKDSD: the amyloid nucleation score came to 1.17 ± 0.39.

The substance YSLFAGIG registered an amyloid nucleation score of 0.735 ± 0.85.

In turn, LEMCLQDVIDGSGQGQNEWG yielded an amyloid nucleation score of -0.074 ± 0.7.

For the substance SYTVFCRVWYDSHRFM, the amyloid nucleation score was -0.066 ± 0.45.

The substance DEPMSDLALVFMYYTVYPGG registered an amyloid nucleation score of 0.638 ± 0.55.

LGHAKRGDWSWLKFSCDSGE registered an amyloid nucleation score of -0.167 ± 0.48.

The substance FVLSNIPVAYLANANNAFHF showed an amyloid nucleation score of 0.677 ± 0.52.

For DHTHLTTQNDICLMVSFTVE, the amyloid nucleation score amounted to 2.7 ± 0.096.

Regarding NVRLHVVYVSPSYACFIWSW, the amyloid nucleation score turned out to be 0.343 ± 1.4.

As for INAFYVVLIIRYVPSSKLLI, the amyloid nucleation score result is “inactive”.

On to TVTAVY, for which the amyloid nucleation score result is “inactive”.

The substance GTTCGSLHRAWGLAKTGCNW displayed an amyloid nucleation score of -0.388 ± 0.42.

Turning to YLSLTTEVWSNGHVWCGIGR, the amyloid nucleation score is -0.043 ± 1.4.

FPGLTFILAGMLCMTCKIRG came in with an amyloid nucleation score of 4.12 ± 0.13.

Take SCSPPIA: the amyloid nucleation score came out at 0.223 ± 0.46.

For the substance LPYTHFGDDLIGITQDGLRV, the amyloid nucleation score is -0.035 ± 0.43.

Regarding MNYRQLL, the amyloid nucleation score amounted to 0.177 ± 0.7.

As for IYLCLATYFLYPRLVWTSTL, the amyloid nucleation score is 0.521 ± 0.72.

As for RYVHSAQLFVNATPHRLRLV, the amyloid nucleation score was 0.578 ± 0.34.

LDLSNDGRFYKGREGAISCR returned an amyloid nucleation score of 0.049 ± 0.31.

In turn, IAYDRRFIDLTRFIAIKFYI gave an amyloid nucleation score of -0.021 ± 0.93.

As to TTASVSSEI, the amyloid nucleation score was -0.441 ± 1.2.

ALVYANPMTVWPSGSLTSVL returned an amyloid nucleation score of 0.685 ± 0.47.

For WEGGGMGNYVQRHACARHKV, the amyloid nucleation score was 0.125 ± 0.3.

For the substance VCKWSVMNHFVVITYHYVMA, the amyloid nucleation score was found to be 0.671 ± 0.3.

For the substance PITFS, the amyloid nucleation score stood at 0.448 ± 0.68.

Consider IVLDT, for which the amyloid nucleation score came to 0.227 ± 0.29.

Turning to GKWPRRSW, the amyloid nucleation score came out at 0.376 ± 1.1.

WVSSDITGRG registered an amyloid nucleation score of 1.87 ± 0.65.

The substance SRGSVCIAMHLAC had an amyloid nucleation score of 0.001 ± 0.37.

WVILVNDGVNVCCFSVRVWA had an amyloid nucleation score of -0.903 ± 2.4.

The substance GASWNCAQYRMMD had an amyloid nucleation score of -0.338 ± 1.7.

The substance FASKRWLWSVEQLSRLSNGT returned an amyloid nucleation score of -0.087 ± 0.21.

Turning to ALITFSRGWLAPLMGQQMVL, the amyloid nucleation score result is “inactive”.

EDCIWYVVGH registered an amyloid nucleation score of -2.18 ± 2.4.

With CILLYMQKSIGFGNSVKFAF, the amyloid nucleation score entry is “inactive”.

Regarding EAGLCSK, the amyloid nucleation score is -0.316 ± 0.45.

Take SKLKAYICLCRMEIVLIPRF: the amyloid nucleation score was -0.978 ± 1.7.

Turning to IPRYVYIGLTPKAVLKQNLA, the amyloid nucleation score was -1.04 ± 0.84.

As for IFNSEVVSSLIRVVSMNMEG, the amyloid nucleation score amounted to 0.654 ± 0.21.

Consider FSIAASASTLFDGFVIWRF, for which the amyloid nucleation score is 0.027 ± 0.5.

NFRGFLVTDPLSSS had an amyloid nucleation score of -0.842 ± 0.42.

CFDNIGGCFNPHDY showed an amyloid nucleation score of -0.184 ± 0.43.

As for NHFLYLFVRYYTRLAEHVYA, the amyloid nucleation score was -0.08 ± 0.56.

LYEDLWFRVREL displayed an amyloid nucleation score of 1.11 ± 0.63.

The substance PGCESARRLKLRVSLKLRGK yielded an amyloid nucleation score of -0.731 ± 1.1.

For ELMCFQQFKWKAMTYKWNGI, the amyloid nucleation score came to 0.337 ± 0.54.

As for HYTLIESSNRSANNEPQVTH, the amyloid nucleation score was 0.353 ± 0.88.

The substance MDIFDTLAWTF came in with an amyloid nucleation score of 0.632 ± 0.58.

FSMTCYVWLITLAKMTRTFQ displayed an amyloid nucleation score of 0.159 ± 0.73.

With NQRYHYLAAQWVDSWLVGCS, the amyloid nucleation score is -0.256 ± 0.6.

Take VECAYSVTFSKMNRNTDFRV: the amyloid nucleation score was 0.265 ± 0.35.

For GKIRSKKGQSLGQNT, the amyloid nucleation score is -1.16 ± 1.2.

Substance VISRSVDYTPM registered an amyloid nucleation score of -0.599 ± 0.46.

Take VCRKRCERQLKPL: the amyloid nucleation score worked out at 0.241 ± 0.24.

With DMIKNAVNILLMMSVF, the amyloid nucleation score was -0.399 ± 0.28.

Substance WVLWYSLLLTDGGDLIESTW registered an amyloid nucleation score of -0.156 ± 0.23.

Substance AGGRFCLLKFLTRFASCRGE gave an amyloid nucleation score of 2.44 ± 0.24.

The substance GLELLAGVIHSWVRGSGALW gave an amyloid nucleation score of -0.868 ± 0.84.

The substance PVSFRILIVEVGLLCRLGAI displayed an amyloid nucleation score of 0.165 ± 0.75.

For KRERGKISIEEAMRQAGQRS, the amyloid nucleation score is 0.578 ± 0.7.

LDRTVWH: the amyloid nucleation score amounted to 0.757 ± 0.34.

With MITSR, the amyloid nucleation score was found to be 1.11 ± 0.53.

In the case of FNDHWSCRV, the amyloid nucleation score was -0.095 ± 0.48.

In the case of HGKYQGTDRYAETGSISGGT, the amyloid nucleation score was -0.395 ± 0.37.

VMGSGLRMGLAESCVENGAS came in with an amyloid nucleation score of -0.021 ± 0.31.

In turn, EEDII returned an amyloid nucleation score of 1.96 ± 0.26.

On to SEGSLLYTMWGTLVDWSSCV, for which the amyloid nucleation score is -1.08 ± 1.4.

In turn, RIKRILFFYSVRIWDLSDG showed an amyloid nucleation score of 2.52 ± 0.12.

For NDGPNSIIYFYMIFI, the amyloid nucleation score turned out to be 4.58 ± 0.12.

For the substance CFTKIFDDYSWCFGAGANQS, the amyloid nucleation score was determined as 0.348 ± 0.28.

FSVRNSSVILEHGVWLNCQG showed an amyloid nucleation score of 0.03 ± 0.97.

Substance VRKSSVASLECQNA had an amyloid nucleation score of 0.335 ± 0.28.

Turning to LAFKGAITPSDFGLNNRYRF, the amyloid nucleation score is -0.037 ± 1.4.

LNTAQI gave an amyloid nucleation score of 0.512 ± 0.29.

The substance YLDWTVSALNWAMRMGSTVR yielded an amyloid nucleation score of 0.381 ± 0.31.

TCFGL: the amyloid nucleation score is -0.702 ± 1.2.

For GVCVNVKLLNWFKSRGTSSR, the amyloid nucleation score is 1.91 ± 0.38.

With VLFGS, the amyloid nucleation score is -0.462 ± 0.93.

In turn, SIVVLGASTWR registered an amyloid nucleation score of 0.032 ± 0.61.

VILSCSLLFCFNRSWGLGNE: the amyloid nucleation score is 7.04 ± 0.067.

In turn, YSRWER showed an amyloid nucleation score of -0.565 ± 0.39.

As to FKIVKSCSMFST, the amyloid nucleation score is 0.761 ± 0.24.

QESEMVCDLSGMAFLSGLVY registered an amyloid nucleation score of -0.442 ± 0.51.

As to DQNVAPYVSKHGVQTILKRD, the amyloid nucleation score is -1.51 ± 1.9.

Regarding EYVMIRHAVLIKMFSMLKRV, the amyloid nucleation score is -0.577 ± 0.45.

As to LSGCEGVPLNLMYLDSKMSR, the amyloid nucleation score is -0.106 ± 0.74.

For the substance LHSWSVAILIHYKMRD, the amyloid nucleation score was -0.084 ± 0.27.

LRRVRMEWSVVMHGQSENPE came in with an amyloid nucleation score of 1.2 ± 0.35.

For RILWSLYGGSLFPYVSVGWR, the amyloid nucleation score was found to be 0.552 ± 0.56.

FACTTSFSFMRWLRN displayed an amyloid nucleation score of 0.903 ± 0.46.

ACRGPNSHRFTGILHIFFLE: the amyloid nucleation score amounted to 0.705 ± 0.67.

QNKSWAG showed an amyloid nucleation score of -0.509 ± 1.7.

For the substance RLCEFSSKGASL, the amyloid nucleation score is -0.115 ± 1.1.

Regarding DEVIF, the amyloid nucleation score stood at 0.421 ± 0.52.

GYEDRRSRCSIWVVRFLNVL came in with an amyloid nucleation score of -0.605 ± 0.8.

With MHNIASC, the amyloid nucleation score was determined as 0.629 ± 0.48.

Substance YQFGLEKSMLGRGY displayed an amyloid nucleation score of 0.36 ± 0.41.

Substance PVRVYIGGEDACMKSTKHMY came in with an amyloid nucleation score of 5.65 ± 0.085.

Regarding NFPLVSFFTNCSNKE, the amyloid nucleation score result is “inactive”.

CEFGSGQALIYGYTMYTWTT gave an amyloid nucleation score of 0.703 ± 0.49.

As to FYLHRAIWPSYHVSRLVRHR, the amyloid nucleation score is -0.979 ± 2.7.

Consider IGGPYLVGSHKLKLWPWLES, for which the amyloid nucleation score was -0.575 ± 0.34.

FTLLTAPGMATHLRTGMRSR had an amyloid nucleation score of 0.51 ± 0.56.

Regarding RNWYKW, the amyloid nucleation score entry is “inactive”.

KNRRSCIMNIGRYWRVQMVI came in with an amyloid nucleation score of -0.846 ± 0.68.

In turn, DVMLNCCGYCAPGGWVVVFS came in with an amyloid nucleation score of 5.33 ± 0.089.

WGTLVIGCFVHTVNLHNRKR came in with an amyloid nucleation score of 6.809 ± 0.048.

For YNLDSLLIWWVIDC, the amyloid nucleation score is -0.22 ± 1.1.

Take AFGLMNCDRLSLTSNINTGG: the amyloid nucleation score was -0.4 ± 0.41.

In turn, LCRIKGHRFIQVDTGEAVWS came in with an amyloid nucleation score of -0.629 ± 0.61.

On to ICVLCC, for which the amyloid nucleation score was 1.15 ± 0.62.

TFYYPINFHTLGLYKLVVML returned an amyloid nucleation score of 0.589 ± 0.33.

TSIRRRLVRFFFNILPVVGL had an amyloid nucleation score of 1.67 ± 0.17.

Consider HLSLGINVPTCFLSEKALLV, for which the amyloid nucleation score was 1.25 ± 0.68.

The substance SWQPECCTVQTLSSKSEISH displayed an amyloid nucleation score of -0.158 ± 1.6.

In turn, LLRVLFFCFSMRCRVGISVA had an amyloid nucleation score of 0.86 ± 0.69.

Consider ILVHSMGFLGKRYCGCMWGD, for which the amyloid nucleation score stood at 3.41 ± 0.13.

In turn, GLGMSRPYGSAPTRPDQNKI returned an amyloid nucleation score of 0.275 ± 1.1.

Consider TMCEYSHFLLRAMNNLMENV, for which the amyloid nucleation score was -1.57 ± 2.7.

In turn, GLRCFCTFHCMWFVLNSSN displayed an amyloid nucleation score of 0.025 ± 0.34.

Substance LVRKKVCTI came in with an amyloid nucleation score of 0.543 ± 0.36.

As for GGWFIINRHHLCYSRNLPPE, the amyloid nucleation score is 0.271 ± 0.69.

Consider ILVVGWFFHLGCLTMSDVVV, for which the amyloid nucleation score was 0.225 ± 1.1.

The substance RPSWFLTADDRVWFSSTGRG returned an amyloid nucleation score of 0.053 ± 1.4.

Substance RILGYRIMTNWGVGSYKPGR displayed an amyloid nucleation score of -0.41 ± 0.46.

Take YFVQYLYTLMLACYYWVISY: the amyloid nucleation score is -1.61 ± 1.4.

Regarding YTMMCGISQRQLTKRRPTLW, the amyloid nucleation score was -0.205 ± 0.52.

The substance KVSYRMRASPRSKILVIRKS returned an amyloid nucleation score of 0.43 ± 0.72.

In turn, STLWKASVFKFCYICLYQQW yielded an amyloid nucleation score of 0.35 ± 0.95.

Take YYWVFCFFA: the amyloid nucleation score is 7.47 ± 0.079.

For SCVAVRLLWQDMHPRANEPR, the amyloid nucleation score was determined as 3.34 ± 0.13.

For GRFGVGVWW, the amyloid nucleation score worked out at 0.127 ± 0.46.

As to CYNNF, the amyloid nucleation score entry is “inactive”.

For VRIAPHKGPDRTSGVLLGRM, the amyloid nucleation score worked out at 0.838 ± 0.75.

Substance FWHGSCSLDNDFHS had an amyloid nucleation score of -0.442 ± 0.51.
